Results taken from paper PMC2268108 (The Journal of General Physiology, 2005).
Where a chain is given by its changes, count along the chain named. Numbers in names are those of the source.

Legend:
SDS-PAGE of the tetramer = target: the molecule itself; assay: SDS-PAGE of the tetramer
[1] = target: the molecule itself; assay: single-molecule fluorescence
[2] = target: the molecule itself; assay: single-molecule fluorescence; remark: listed apart in the source
cross-linking = target: the molecule itself; assay: cross-linking

B1: KcsA T75C (natural protein)
chain: MPPMLSGLLARLVKLLLGRHGSALHWRAAGAATVLLVIVLLAGSYLAVLAERGAPGAQLITYPRALWWSVETATCVGYGDLYPVTLWGRLVAVVVMVAGITSFGLVTAALATWFVGREQERRGHFVRHSEKAAEEAYTRTTRALHERFDRLERMLDDNRR
binding result (SDS-PAGE of the tetramer): binds

B2: KcsA Thr75 to Ala (natural protein)
chain: B1 chain with C75A
binding result (SDS-PAGE of the tetramer): binds

B3: pig gastric H/K-ATPase (αβ protomer), FITC-modified (complex)
chain 1: not shown
chain 2: MAALQEKKSCSQRMEEFQRYCWNPDTGQMLGRTLSRWVWISLYYVAFYVVMSGIFALCIYVLMRTIDPYTPDYQDQLKSPGVTLRPDVYGEKGLDISYNVSDSTTWAGLAHTLHRFLAGYSPAAQEGSINCTSEKYFFQESFLAPNHTKFSCKFTADMLQNCSGRPDPTFGFAEGKPCFIIKMNRIVKFLPGNSTAPRVDCAFLDQPRDGPPLQVEYFPANGTYSLHYFPYYGKKAQPHYSNPLVAAKLLNVPRNRDVVIVCKILAEHVSFDNPHDPYEGKVEFKLKIQK
stoichiometry N [1]: 4 | stoichiometry N [2]: 2

B4: KdpFABC complex from Escherichia coli (complex)
chain 1: MSAGVITGVLLVFLLLGYLVYALINAEAF
chain 2: MAAQGFLLIATFLLVLMVLARPLGSGLARLINDIPLPGTTGVERVLFRALGVSDREMNWKQYLCAILGLNMLGLAVLFFMLLGQHYLPLNPQQLPGLSWDLALNTAVSFVTNTNWQSYSGETTLSYFSQMAGLTVQNFLSAASGIAVIFALIRAFTRQSMSTLGNAWVDLLRITLWVLVPVALLIALFFIQQGALQNFLPYQAVNTVEGAQQLLPMGPVASQEAIKMLGTNGGGFFNANSSHPFENPTALTNFVQMLAIFLIPTALCFAFGEVMGDRRQGRMLLWAMSVIFVICVGVVMWAEVQGNPHLLALGTDSSINMEGKESRFGVLVSSLFAVVTTAASCGAVIAMHDSFTALGGMVPMWLMQIGEVVFGGVGSGLYGMMLFVLLAVFIAGLMIGRTPEYLGKKIDVREMKLTALAILVTPTLVLMGAALAMMTDAGRSAMLNPGPHGFSEVLYAVSSAANNNGSAFAGLSANSPFWNCLLAFCMFVGRFGVIIPVMAIAGSLVSKKSQAASSGTLPTHGPLFVGLLIGTVLLVGALTFIPALALGPVAEYLS
chain 3: MSRKQLALFEPTLVVQALKEAVKKLNPQAQWRNPVMFIVWIGSLLTTCISIAMASGAMPGNALFSAAISGWLWITVLFANFAEALAEGRSKAQANSLKGVKKTAFARKLREPKYGAAADKVPADQLRKGDIVLVEAGDIIPCDGEVIEGGASVDESAITGESAPVIRESGGDFASVTGGTRILSDWLVIECSVNPGETFLDRMIAMVEGAQRRKTPNEIALTILLIALTIVFLLATATLWPFSAWGGNAVSVTVLVALLVCLIPTTIGGLLSAIGVAGMSRMLGANVIATSGRAVEAAGDVDVLLLDKTGTITLGNRQASEFIPAQGVDEKTLADAAQLASLADETPEGRSIVILAKQRFNLRERDVQSLHATFVPFTAQSRMSGINIDNRMIRKGSVDAIRRHVEANGGHFPTDVDQKVDQVARQGATPLVVVEGSRVLGVIALKDIVKGGIKERFAQLRKMGIKTVMITGDNRLTAAAIAAEAGVDDFLAEATPEAKLALIRQYQAEGRLVAMTGDGTNDAPALAQADVAVAMNSGTQAAKEAGNMVDLDSNPTKLIEVVHIGKQMLMTRGSLTTFSIANDVAKYFAIIPAAFAATYPQLNALNIMCLHSPDSAILSAVIFNALIIVFLIPLALKGVSYKPLTASAMLRRNLWIYGLGGLLVPFIGIKVIDLLLTVCGLV
chain 4: MSGLRPALSTFIFLLLITGGVYPLLTTVLGQWWFPWQANGSLIREGDTVRGSALIGQNFTGNGYFHGRPSATAEMPYNPQASGGSNLAVSNPELDKLIAARVAALRAANPDASASVPVELVTASASGLDNNITPQAAAWQIPRVAKARNLSVEQLTQLIAKYSQQPLVKYIGQPVVNIVELNLALDKLDE
stoichiometry N (cross-linking): 2
